This test concerns the target poly-C3-GFOGMR (disulfide-linked polymer of the triple-helical peptide C3-GFOGMR). Put plainly: ELISA. A general note: ELISA stands for enzyme-linked immunosorbent assay.

Regarding “GST-α2I domain E318W mutant (from UniProt P17301 169-366) (domain or fragment)”, the affinity relative to the T221A mutant amounted to 0.0033 fold.

The values above are taken from article doi:10.1101/2025.07.28.667101.
